Measurements taken from US20020123056.

Test system: T1, GST-SGK2 fusion protein (human SGK2 with N-terminal Glutathione S-transferase tag, expressed in Hi5 insect cells)
T1 sequence: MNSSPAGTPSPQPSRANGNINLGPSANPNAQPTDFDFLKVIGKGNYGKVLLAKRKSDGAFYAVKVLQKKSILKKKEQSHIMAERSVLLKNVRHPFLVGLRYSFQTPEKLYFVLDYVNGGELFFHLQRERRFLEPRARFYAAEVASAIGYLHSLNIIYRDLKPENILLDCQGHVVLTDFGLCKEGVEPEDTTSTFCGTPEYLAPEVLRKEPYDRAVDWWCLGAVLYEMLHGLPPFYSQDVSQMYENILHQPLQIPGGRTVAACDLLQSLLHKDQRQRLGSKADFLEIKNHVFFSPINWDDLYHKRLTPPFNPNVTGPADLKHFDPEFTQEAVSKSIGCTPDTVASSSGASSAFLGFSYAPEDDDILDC

## active His-tag PDK1 (expressed in insect cells, purified on Talon affinity column)
  in vitro phosphorylation of SGK2 by PDK1 (32P, SDS-PAGE imaging): SGK2 activated by PKD1 was significantly phosphorylated, while non-activated SGK2 was not
